Data: patent publication US20230357348A1 (AstraZeneca / MedImmune, published 2023)
Starred links: 1 amine or outer side, 2 acyl side, 3 side chain; linkers in the order of their positions; H or OH if unused. Non-standard residues stand in square brackets, D forms with d. Groups on a side chain read outwards from the residue. No end group written: not given here. *: point of attachment. C20 diacid = O=C(O)CCCCCCCCCCCCCCCCCCC(=O)*; C18 diacid = O=C(O)CCCCCCCCCCCCCCCCC(=O)*; γGlu = O=C(O)[C@H](CCC(=O)[*:2])N[*:1]; αMeF = C[C@](N)(Cc1ccccc1)C(=O)O; AEEA = NCCOCCOCC(=O)O; Aib = CC(C)(N)C(=O)O

Experiments:
[1] = target: human glucagon receptor (hGCGR) (human, UniProt P47871 26-477); test: cell-based or functional assay
[2] = target: human GLP-1 receptor (hGLP-1R) (human, UniProt P43220 24-463); test: cell-based or functional assay

Chain of human glucagon receptor (hGCGR) (P47871 26-477): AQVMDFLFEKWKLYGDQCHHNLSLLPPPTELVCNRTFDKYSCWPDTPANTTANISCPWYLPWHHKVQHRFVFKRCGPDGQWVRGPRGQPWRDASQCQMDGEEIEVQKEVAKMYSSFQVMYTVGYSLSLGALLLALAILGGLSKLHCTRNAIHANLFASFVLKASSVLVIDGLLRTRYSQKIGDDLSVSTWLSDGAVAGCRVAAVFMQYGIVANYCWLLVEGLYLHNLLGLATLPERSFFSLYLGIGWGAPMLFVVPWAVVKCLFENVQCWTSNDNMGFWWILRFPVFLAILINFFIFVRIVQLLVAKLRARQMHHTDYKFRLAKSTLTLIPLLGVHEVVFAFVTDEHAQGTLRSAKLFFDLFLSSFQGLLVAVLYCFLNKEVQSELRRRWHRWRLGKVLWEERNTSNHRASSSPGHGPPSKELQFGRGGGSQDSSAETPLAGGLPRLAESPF

Row | Binder | hGluc-R EC50 (pM) [1] | hGLP-1R EC50 (pM) [2]
1 | H[Aib]QGTFTSDVSK[αMeF]LDTK([AEEA-AEEA-γGlu-C18 diacid])RARDFVQWLLE[Aib]K-NH2 (N-terminus assumed; SMILES CC(C)C[C@H](NC(=O)[C@H](Cc1c[nH]c2ccccc12)NC(=O)[C@H](CCC(N)=O)NC(=O)[C@@H](NC(=O)[C@H](Cc1ccccc1)NC(=O)[C@H](CC(=O)O)NC(=O)[C@H](CCCNC(=N)N)NC(=O)[C@H](C)NC(=O)[C@H](CCCNC(=N)N)NC(=O)[C@H](CCCCNC(=O)COCCOCCNC(=O)COCCOCCNC(=O)CC[C@H](NC(=O)CCCCCCCCCCCCCCCCC(=O)O)C(=O)O)NC(=O)[C@@H](NC(=O)[C@H](CC(=O)O)NC(=O)[C@H](CC(C)C)NC(=O)[C@](C)(Cc1ccccc1)NC(=O)[C@H](CCCCN)NC(=O)[C@H](CO)NC(=O)[C@@H](NC(=O)[C@H](CC(=O)O)NC(=O)[C@H](CO)NC(=O)[C@@H](NC(=O)[C@H](Cc1ccccc1)NC(=O)[C@@H](NC(=O)CNC(=O)[C@H](CCC(N)=O)NC(=O)C(C)(C)NC(=O)[C@@H](N)Cc1c[nH]cn1)[C@@H](C)O)[C@@H](C)O)C(C)C)[C@@H](C)O)C(C)C)C(=O)N[C@@H](CC(C)C)C(=O)N[C@@H](CCC(=O)O)C(=O)NC(C)(C)C(=O)N[C@@H](CCCCN)C(N)=O) [Peptide 480] | 136 pM | 12.6 pM
2 | H[Aib]QGTFTSDVSK[αMeF]LDTK([AEEA-AEEA-γGlu-C20 diacid])RARDFVQWLLE[Aib]K-NH2 (N-terminus assumed; SMILES CC(C)C[C@H](NC(=O)[C@H](Cc1c[nH]c2ccccc12)NC(=O)[C@H](CCC(N)=O)NC(=O)[C@@H](NC(=O)[C@H](Cc1ccccc1)NC(=O)[C@H](CC(=O)O)NC(=O)[C@H](CCCNC(=N)N)NC(=O)[C@H](C)NC(=O)[C@H](CCCNC(=N)N)NC(=O)[C@H](CCCCNC(=O)COCCOCCNC(=O)COCCOCCNC(=O)CC[C@H](NC(=O)CCCCCCCCCCCCCCCCCCC(=O)O)C(=O)O)NC(=O)[C@@H](NC(=O)[C@H](CC(=O)O)NC(=O)[C@H](CC(C)C)NC(=O)[C@](C)(Cc1ccccc1)NC(=O)[C@H](CCCCN)NC(=O)[C@H](CO)NC(=O)[C@@H](NC(=O)[C@H](CC(=O)O)NC(=O)[C@H](CO)NC(=O)[C@@H](NC(=O)[C@H](Cc1ccccc1)NC(=O)[C@@H](NC(=O)CNC(=O)[C@H](CCC(N)=O)NC(=O)C(C)(C)NC(=O)[C@@H](N)Cc1c[nH]cn1)[C@@H](C)O)[C@@H](C)O)C(C)C)[C@@H](C)O)C(C)C)C(=O)N[C@@H](CC(C)C)C(=O)N[C@@H](CCC(=O)O)C(=O)NC(C)(C)C(=O)N[C@@H](CCCCN)C(N)=O) [Peptide 481] | 350 pM | 52.2 pM
3 | H[Aib]QGTFTSDVSK[αMeF]LESK([AEEA-AEEA-γGlu-C18 diacid])RAQDFVQWLL[Aib]E-OH (N-terminus assumed; SMILES CC(C)C[C@H](NC(=O)[C@H](Cc1c[nH]c2ccccc12)NC(=O)[C@H](CCC(N)=O)NC(=O)[C@@H](NC(=O)[C@H](Cc1ccccc1)NC(=O)[C@H](CC(=O)O)NC(=O)[C@H](CCC(N)=O)NC(=O)[C@H](C)NC(=O)[C@H](CCCNC(=N)N)NC(=O)[C@H](CCCCNC(=O)COCCOCCNC(=O)COCCOCCNC(=O)CC[C@H](NC(=O)CCCCCCCCCCCCCCCCC(=O)O)C(=O)O)NC(=O)[C@H](CO)NC(=O)[C@H](CCC(=O)O)NC(=O)[C@H](CC(C)C)NC(=O)[C@](C)(Cc1ccccc1)NC(=O)[C@H](CCCCN)NC(=O)[C@H](CO)NC(=O)[C@@H](NC(=O)[C@H](CC(=O)O)NC(=O)[C@H](CO)NC(=O)[C@@H](NC(=O)[C@H](Cc1ccccc1)NC(=O)[C@@H](NC(=O)CNC(=O)[C@H](CCC(N)=O)NC(=O)C(C)(C)NC(=O)[C@@H](N)Cc1c[nH]cn1)[C@@H](C)O)[C@@H](C)O)C(C)C)C(C)C)C(=O)N[C@@H](CC(C)C)C(=O)NC(C)(C)C(=O)N[C@@H](CCC(=O)O)C(=O)O) [Peptide 482] | 691 pM | 190 pM
4 | H[Aib]QGTFTSDVSK[αMeF]LDTK([AEEA-AEEA-γGlu-C18 diacid])RAQDFVQWLL[Aib]E-OH [Peptide 483] | 169 pM | 178 pM
5 | H[Aib]QGTFTSDVSK[αMeF]LDTK([AEEA-AEEA-γGlu-C20 diacid])RAQDFVQWLL[Aib]E-OH (N-terminus assumed; SMILES CC(C)C[C@H](NC(=O)[C@H](Cc1c[nH]c2ccccc12)NC(=O)[C@H](CCC(N)=O)NC(=O)[C@@H](NC(=O)[C@H](Cc1ccccc1)NC(=O)[C@H](CC(=O)O)NC(=O)[C@H](CCC(N)=O)NC(=O)[C@H](C)NC(=O)[C@H](CCCNC(=N)N)NC(=O)[C@H](CCCCNC(=O)COCCOCCNC(=O)COCCOCCNC(=O)CC[C@H](NC(=O)CCCCCCCCCCCCCCCCCCC(=O)O)C(=O)O)NC(=O)[C@@H](NC(=O)[C@H](CC(=O)O)NC(=O)[C@H](CC(C)C)NC(=O)[C@](C)(Cc1ccccc1)NC(=O)[C@H](CCCCN)NC(=O)[C@H](CO)NC(=O)[C@@H](NC(=O)[C@H](CC(=O)O)NC(=O)[C@H](CO)NC(=O)[C@@H](NC(=O)[C@H](Cc1ccccc1)NC(=O)[C@@H](NC(=O)CNC(=O)[C@H](CCC(N)=O)NC(=O)C(C)(C)NC(=O)[C@@H](N)Cc1c[nH]cn1)[C@@H](C)O)[C@@H](C)O)C(C)C)[C@@H](C)O)C(C)C)C(=O)N[C@@H](CC(C)C)C(=O)NC(C)(C)C(=O)N[C@@H](CCC(=O)O)C(=O)O) [Peptide 484] | 169 pM | 339 pM
6 | H[Aib]QGTFTSDVSK[αMeF]LDTK([AEEA-AEEA-γGlu-C20 diacid])RAQDFVQWLL[Aib]E-NH2 (N-terminus assumed; SMILES CC(C)C[C@H](NC(=O)[C@H](Cc1c[nH]c2ccccc12)NC(=O)[C@H](CCC(N)=O)NC(=O)[C@@H](NC(=O)[C@H](Cc1ccccc1)NC(=O)[C@H](CC(=O)O)NC(=O)[C@H](CCC(N)=O)NC(=O)[C@H](C)NC(=O)[C@H](CCCNC(=N)N)NC(=O)[C@H](CCCCNC(=O)COCCOCCNC(=O)COCCOCCNC(=O)CC[C@H](NC(=O)CCCCCCCCCCCCCCCCCCC(=O)O)C(=O)O)NC(=O)[C@@H](NC(=O)[C@H](CC(=O)O)NC(=O)[C@H](CC(C)C)NC(=O)[C@](C)(Cc1ccccc1)NC(=O)[C@H](CCCCN)NC(=O)[C@H](CO)NC(=O)[C@@H](NC(=O)[C@H](CC(=O)O)NC(=O)[C@H](CO)NC(=O)[C@@H](NC(=O)[C@H](Cc1ccccc1)NC(=O)[C@@H](NC(=O)CNC(=O)[C@H](CCC(N)=O)NC(=O)C(C)(C)NC(=O)[C@@H](N)Cc1c[nH]cn1)[C@@H](C)O)[C@@H](C)O)C(C)C)[C@@H](C)O)C(C)C)C(=O)N[C@@H](CC(C)C)C(=O)NC(C)(C)C(=O)N[C@@H](CCC(=O)O)C(N)=O) [Peptide 485] | 90.4 pM | 219 pM
7 | H[Aib]QGTFTSDVSK[αMeF]LDLK([AEEA-AEEA-γGlu-C20 diacid])RAQDFVRWLL[Aib]E-OH (N-terminus assumed; SMILES CC(C)C[C@H](NC(=O)[C@H](CC(=O)O)NC(=O)[C@H](CC(C)C)NC(=O)[C@](C)(Cc1ccccc1)NC(=O)[C@H](CCCCN)NC(=O)[C@H](CO)NC(=O)[C@@H](NC(=O)[C@H](CC(=O)O)NC(=O)[C@H](CO)NC(=O)[C@@H](NC(=O)[C@H](Cc1ccccc1)NC(=O)[C@@H](NC(=O)CNC(=O)[C@H](CCC(N)=O)NC(=O)C(C)(C)NC(=O)[C@@H](N)Cc1c[nH]cn1)[C@@H](C)O)[C@@H](C)O)C(C)C)C(=O)N[C@@H](CCCCNC(=O)COCCOCCNC(=O)COCCOCCNC(=O)CC[C@H](NC(=O)CCCCCCCCCCCCCCCCCCC(=O)O)C(=O)O)C(=O)N[C@@H](CCCNC(=N)N)C(=O)N[C@@H](C)C(=O)N[C@@H](CCC(N)=O)C(=O)N[C@@H](CC(=O)O)C(=O)N[C@@H](Cc1ccccc1)C(=O)N[C@H](C(=O)N[C@@H](CCCNC(=N)N)C(=O)N[C@@H](Cc1c[nH]c2ccccc12)C(=O)N[C@@H](CC(C)C)C(=O)N[C@@H](CC(C)C)C(=O)NC(C)(C)C(=O)N[C@@H](CCC(=O)O)C(=O)O)C(C)C) [Peptide 486] | 166 pM | 420 pM
8 | H[Aib]QGTFTSDVSK[αMeF]LDTK([AEEA-AEEA-γGlu-C18 diacid])RARDFVQWLL[Aib]TE-OH (N-terminus assumed; SMILES CC(C)C[C@H](NC(=O)[C@H](Cc1c[nH]c2ccccc12)NC(=O)[C@H](CCC(N)=O)NC(=O)[C@@H](NC(=O)[C@H](Cc1ccccc1)NC(=O)[C@H](CC(=O)O)NC(=O)[C@H](CCCNC(=N)N)NC(=O)[C@H](C)NC(=O)[C@H](CCCNC(=N)N)NC(=O)[C@H](CCCCNC(=O)COCCOCCNC(=O)COCCOCCNC(=O)CC[C@H](NC(=O)CCCCCCCCCCCCCCCCC(=O)O)C(=O)O)NC(=O)[C@@H](NC(=O)[C@H](CC(=O)O)NC(=O)[C@H](CC(C)C)NC(=O)[C@](C)(Cc1ccccc1)NC(=O)[C@H](CCCCN)NC(=O)[C@H](CO)NC(=O)[C@@H](NC(=O)[C@H](CC(=O)O)NC(=O)[C@H](CO)NC(=O)[C@@H](NC(=O)[C@H](Cc1ccccc1)NC(=O)[C@@H](NC(=O)CNC(=O)[C@H](CCC(N)=O)NC(=O)C(C)(C)NC(=O)[C@@H](N)Cc1c[nH]cn1)[C@@H](C)O)[C@@H](C)O)C(C)C)[C@@H](C)O)C(C)C)C(=O)N[C@@H](CC(C)C)C(=O)NC(C)(C)C(=O)N[C@H](C(=O)N[C@@H](CCC(=O)O)C(=O)O)[C@@H](C)O) [Peptide 487] | 164 pM | 65.5 pM
